This sample holds only a part of the variants without activity.
B1: TPR 5TU (parent)
chain: GGAUCUUCUCGAUCUAACAAAAAAGACAAAUCUGCCACAAAGCUUGAGAGCAUCUUCGGAUGCAGAGGCGGCAGCCUUCGGUGGCGCGAUAGCGCCAACGUUCUCAACUAUGACACGCAAAACGCGUGCUCCGUUGAAUGGAGUUUAUCAUG

Variants of: B1
Experiment: polymerase ribozyme fitness, log enrichment relative to wild type (log ratio); higher = more active; in vitro selection for triplet polymerase activity
Outline: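 Mutant libraries of both subunits of a heterodimeric triplet polymerase ribozyme were PCR-built, transcribed, and selected once in triplicate, with frozen incubation at −7 °C and capture of gel-excised extended constructs on streptavidin beads before RT-PCR. Illumina sequencing of input and output libraries was filtered to genotypes with ≥10 input reads and ≥1 read per output. Fitness is the logarithm of genotype enrichment over wild-type enrichment, using inverse-variance-weighted replicate averages. The logarithm is base 2.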

| Variant | polymerase ribozyme fitness (log ratio) |
| --- | --- |
| GGAUCUUCUCGAUCUAACAAAAAAGACAAAUCUGCCACAAAGCUUGAGAGCAUCUUCGGAUGCAGAGGCGGCAGCCUUCGGUGGCGCGAUAGCGCCAACGUUCUCAACUAUGACACGCUAAACGCAUGCUCCGUCGAAUGCAGUUUAUCAUG [A119U G126A U135C G141C] | -3.75 |
| GGAUCUUCUCGAUCUAACAAAAAAGACAAAUCUGCCACAAAGCUUGAGAGCAUCUUCGGAUGCAGAGGCGGCAGCCUUCGGUGGCGCGAUAGCGCCAACGUUCUCAACUAUGACUCGAAAAACGCGUGCUCCGUUGAAUGGAGUUUAUCAUG [A115U C118A] | -1.83 |
| GGAUCUUCUCGAUCUAACAAAAAAGACAAAUCUGCCACAAAGCUUGAGAGCAUCUUCGGAUGCAGAGGCGGCAGCCUUCGGUGGCGCGAUAGCGCCAACGUUCUCAACUAUGACACGUAGAACGCGUGCUCCGUUGAAUGGACUUUAUCAUG [C118U A120G G143C] | -2.13 |
| GGAUCUUCUCGAUCUAACAAAAAAGACAAAUCUGCCACAAAGCUUGAGAGCAUCUUCGGAUGCAGAGGCGGCAGCCUUCGGUGGCGCGAUAGCGCCAACGUUCUCAACUAUGACACGCUAAACGCGUGCUCCGAUGAAUGGAGUUUAUCAUG [A119U U134A] | -2.99 |
| GGAUCUUCUCGAUCUAACAAAAAAGACAAAUCUGCCACAAAGCUUGAGAGCAUCUUCGGAUGCAGAGGCGGCAGCCUUCGGUGGCGCGAUAGCGCCAACGUUCUCAACUAUGAUACGCAAAGCGCGUGCUCCGUUGAAUGGAGUUUAUCAUG [C114U A122G] | -1.87 |
| GGAUCUUCUCGAUCUAACAAAAAAGACAAAUCUGCCACAAAGCUUGAGAGCAUCUUCGGAUGCAGAGGCGGCAGCCUUCGGUGGCGCGAUAGCGCCAACGUUCUCAACUAUGAUACGCAAAACGCGUGCUCCGUUGAACGGAGUUUAUCAUG [C114U U139C] | -3.63 |
| GGAUCUUCUCGAUCUAACAAAAAAGACAAAUCUGCCACAAAGCUUGAGAGCAUCUUCGGAUGCAGAGGCGGCAGCCUUCGGUGGCGCGAUAGCGCCAACGUUCUCAACUAUGACAUGCAAAACGCGUGCUCCGUUGAAUGGAGUCUACCAUG [C116U U145C U148C] | -2.77 |
| GGAUCUUCUCGAUCUAACAAAAAAGACAAAUCUGCCACAAAGCUUGAGAGCAUCUUCGGAUGCAGAGGCGGCAGCCUUCGGUGGCGCGAUAGCGCCAACGUUCUCAACUAUGACACGCUAAACGCAUGCUCCGUUGAAUGGAGUUUAUCAUG [A119U G126A] | 0.174 |
| GGAUCUUCUCGAUCUAACAAAAAAGACAAAUCUGCCACAAAGCUUGAGAGCAUCUUCGGAUGCAGAGGCGGCAGCCUUCGGUGGCGCGAUAGCGCCAACGUUCUCAACUAUGAUACGCAAAACGCGUGCUCCGUUGCAUGGAGUUUAUCAUG [C114U A137C] | -3.52 |
| GGAUCUUCUCGAUCUAACAAAAAAGACAAAUCUGCCACAAAGCUUGAGAGCAUCUUCGGAUGCAGAGGCGGCAGCCUUCGGUGGCGCGAUAGCGCCAACGUUCUCAACUAUGACAAGCAAAACGCGUGCUCCGUUGAAUGGAGUUUACCAUG [C116A U148C] | -3.09 |
| GGAUCUUCUCGAUCUAACAAAAAAGACAAAUCUGCCACAAAGCUUGAGAGCAUCUUCGGAUGCAGAGGCGGCAGCCUUCGGUGGCGCGAUAGCGCCAACGUUCUCAACUAUGACACUCAAAACGCGUGCUCCGUCGAAUGGAGUUUAUCAUG [G117U U135C] | -2.36 |
| GGAUCUUCUCGAUCUAACAAAAAAGACAAAUCUGCCACAAAGCUUGAGAGCAUCUUCGGAUGCAGAGGCGGCAGCCUUCGGUGGCGCGAUAGCGCCAACGUUCUCAACUAUGACAUGCAAAACGCGUGCUCCGUUGAAUGGAGUUAAUCAUG [C116U U146A] | -0.753 |
| GGAUCUUCUCGAUCUAACAAAAAAGACAAAUCUGCCACAAAGCUUGAGAGCAUCUUCGGAUGCAGAGGCGGCAGCCUUCGGUGGCGCGAUAGCGCCAACGUUCUCAACUAUGACACGCGAAACGAGUGCUCCGUUGAAUGGAGUUUAUCAUG [A119G C125A] | 0.204 |
| GGAUCUUCUCGAUCUAACAAAAAAGACAAAUCUGCCACAAAGCUUGAGAGCAUCUUCGGAUGCAGAGGCGGCAGCCUUCGGUGGCGCGAUAGCGCCAACGUUCUCAACUAUGAUACGCAAAACGCGUGCUCCGUUGAAUGGAGUUUAUCAGG [C114U U151G] | -4.08 |
| GGAUCUUCUCGAUCUAACAAAAAAGACAAAUCUGCCACAAAGCUUGAGAGCAUCUUCGGAUGCAGAGGCGGCAGCCUUCGGUGGCGCGAUAGCGCCAACGUUCUCAACUAUGAUACGCAAAACGCGUGCUCCGUUGAAUGGAGUUUAUCACG [C114U U151C] | ≤ -4.2 |
| GGAUCUUCUCGAUCUAACAAAAAAGACAAAUCUGCCACAAAGCUUGAGAGCAUCUUCGGAUGCAGAGGCGGCAGCCUUCGGUGGCGCGAUAGCGCCAACGUUCUCAACUAUGACAAGCAAAACGCGUGCUCCGUUGAAUUGAGUUUAUCAUG [C116A G140U] | -4.02 |
| GGAUCUUCUCGAUCUAACAAAAAAGACAAAUCUGCCACAAAGCUUGAGAGCAUCUUCGGAUGCAGAGGCGGCAGCCUUCGGUGGCGCGAUAGCGCCAACGUUCUCAACUAUGAUACGCAAAACUCGUGCUCCGUUGAAUGGAGUUUAUCAUG [C114U G124U] | -3.13 |
| GGAUCUUCUCGAUCUAACAAAAAAGACAAAUCUGCCACAAAGCUUGAGAGCAUCUUCGGAUGCAGAGGCGGCAGCCUUCGGUGGCGCGAUAGCGCCAACGUUCUCAACUAUGAUACGCAAAACCCGUGCUCCGUUGAAUGGAGUUUAUCAUG [C114U G124C] | -4.11 |
| GGAUCUUCUCGAUCUAACAAAAAAGACAAAUCUGCCACAAAGCUUGAGAGCAUCUUCGGAUGCAGAGGCGGCAGCCUUCGGUGGCGCGAUAGCGCCAACGUUCUCAACUAUGACAUGCAAAACGCGUGCUCCGUUGAAUGUAGUUUAUCAUG [C116U G141U] | 1.29 |
